Source: the supplement of paper PMC9732359
± gives the uncertainty stated by the source.

Assay: protein stability index of a GFP-peptide fusion (yeast GPS) (PSI 1-4); higher = more stable; sorted into four equal gates, so the index is relative within each strain
Procedure, shortened: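 The protein stability index of a peptide was calculated by multiplying its read frequency in each gate by that gate's number and adding the products. The peptides were tiled 17-residue stretches of yeast proteins, fused downstream of GFP on a Cherry-expressing plasmid and carried in yeast as a pooled library. Mid-log cultures in leucine-free medium were sorted into four equal gates by GFP/Cherry ratio, and each gate's plasmids were PCR-amplified and Illumina-sequenced.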

Row | Sequence | protein stability index (doa10∆) | protein stability index (pdr5∆) | protein stability index (ubr1∆) | protein stability index (san1∆)
1 | GPSSVHNAKNGTLDKNS [SNF2] | 2.66 ± 0.22 | 3.03 ± 0.22 | 2.74 ± 0.17 | –
2 | FDRLNGNDTISKFYNMK [SSN2] | 3.17 ± 0.1 | 3.06 ± 0.082 | 3.08 ± 0.059 | 3.19 ± 0.053
3 | IRNVIMSASNANDFQLT [SRB8] | 2.06 ± 0.048 | 2.34 ± 0.058 | 2.19 ± 0.073 | 2.24 ± 0.087
4 | FFAYFIGWCKEDPKRRA [YJL039C/NUP192] | 2.15 ± 0.15 | 2.03 ± 0.078 | 3.21 ± 0.066 | 2.61 ± 0.057
5 | PLAPAPINLPPQIAQLP [SNF5] | 1.8 ± 0.079 | 2.09 ± 0.064 | 1.97 ± 0.061 | 1.88 ± 0.12
6 | ICDPVHKHREARGLTAT [RPL15A] | 3.49 ± 0.12 | 2.81 ± 0.14 | 3.26 ± 0.099 | 2.93 ± 0.13
7 | FEQCCKEKKELQMRLKE [YIL149C/MLP2] | – | 3.11 ± 0.29 | – | –
8 | IYSPLHSFIKMLQMKGK [SIR2] | 2.1 ± 0.064 | 1.79 ± 0.058 | 1.88 ± 0.051 | 1.91 ± 0.14
9 | SQPFIKFLNFRPPNGIK [SSN2] | 2.65 ± 0.052 | 2.31 ± 0.05 | 2.4 ± 0.039 | 2.23 ± 0.06
10 | SYALSMEKDKLKNLLRS [SNU114] | 2.97 ± 0.25 | 2.24 ± 0.1 | 2.68 ± 0.13 | 2.31 ± 0.16
11 | TMGEETAKKDMSSTTPK [SNF12] | 2.58 ± 0.07 | 3.03 ± 0.076 | 3.27 ± 0.079 | 3.31 ± 0.1
12 | GIGSLTDLMSIVQELLD [RPC34] | 3.49 ± 0.17 | 2.91 ± 0.16 | 3.17 ± 0.13 | 3.23 ± 0.13
13 | YSIDEFFLQRKLRSELG [BRR2] | 2.3 ± 0.12 | 2.06 ± 0.13 | 1.5 ± 0.22 | 1.8 ± 0.16
14 | QKETQKVTKIWSKESNY [PRP28] | 1.63 ± 0.04 | 2.1 ± 0.041 | 1.95 ± 0.027 | 2.3 ± 0.047
15 | GITYRREDMPFTAEGIV [RPB2] | 2.52 ± 0.096 | 1.86 ± 0.099 | 2.07 ± 0.12 | 2.39 ± 0.13
16 | VDSQGLPYNWDALEMQW [ARP7] | 1.7 ± 0.066 | 2.35 ± 0.07 | 1.91 ± 0.073 | 2.64 ± 0.1
17 | IETVMTQEQFVKRRRDM [SRB4] | 2.94 ± 0.22 | 3.24 ± 0.12 | 2.49 ± 0.26 | 2.92 ± 0.1
18 | ENLMVQRTCLMTVTFLI [YCS4] | 2.09 ± 0.053 | 1.97 ± 0.045 | 2.04 ± 0.038 | 2.16 ± 0.07
19 | QEQITLYDHWDKYHEQW [SSN8] | 3.32 ± 0.19 | 3.12 ± 0.12 | 2.76 ± 0.046 | 2.84 ± 0.071
20 | AISKKDLEEVKRFQVLY [SEC65] | 2.6 ± 0.16 | 3.02 ± 0.1 | 2.3 ± 0.13 | 2.8 ± 0.29
21 | QESFINTMSAWVNMLLI [FAS2] | 2.2 ± 0.077 | 2.12 ± 0.085 | 2.37 ± 0.066 | 2.08 ± 0.1
22 | AMANAPGNNIPYMNHKN [GAL11] | 2.83 ± 0.17 | 3.26 ± 0.19 | 2.75 ± 0.16 | 2.6 ± 0.18
23 | IFWGIRLAKSTENEIPN [BRR2] | 1.42 ± 0.089 | 1.43 ± 0.055 | 1.49 ± 0.064 | 1.18 ± 0.13
24 | EAKERYTDRDQDEVNKG [NNF1] | 3.26 ± 0.15 | 3.28 ± 0.13 | 3.74 ± 0.11 | 3.3 ± 0.22
25 | HEFKLIVGKKIQEFLVV [GRR1] | 2.73 ± 0.046 | 2.09 ± 0.062 | 2.4 ± 0.059 | 2.38 ± 0.076
26 | AILQEKILSILNRSHFA [ECM29] | 1.87 ± 0.05 | 2.15 ± 0.052 | 2.35 ± 0.051 | 2.27 ± 0.054

Row | Sequence | protein stability index (doa10∆) | protein stability index (pdr5∆) | protein stability index (ubr1∆) | protein stability index (san1∆)
27 | QQREAVRQLYKGKKYQP [RPL35A] | 3.63 ± 0.29 | 3.42 ± 0.14 | 2.83 ± 0.091 | 2.94 ± 0.14
28 | TSSNIVLETHESGIKPY [RPT6] | 2.55 ± 0.097 | 2.76 ± 0.061 | 2.47 ± 0.061 | 2.68 ± 0.099
29 | EGKRIAFGFVDRTLPHF [RPO21] | 2.89 ± 0.058 | 2.98 ± 0.054 | 3.13 ± 0.035 | 2.95 ± 0.048
30 | SVFMPLIFIACNDEDKD [ECM29] | 2.99 ± 0.069 | 2.93 ± 0.058 | 2.55 ± 0.04 | 2.09 ± 0.079
31 | RNNLPAKTFGASVRIFL [RPL33A] | 2.81 ± 0.052 | 2.76 ± 0.054 | 2.68 ± 0.052 | 2.84 ± 0.053
32 | NKNGNAVCSTATVVSTN [PGD1] | 2.77 ± 0.059 | 2.83 ± 0.061 | 2.81 ± 0.053 | 2.3 ± 0.073
33 | THSKLFADKKRDCIDIS [PRP8] | 3.45 ± 0.095 | 3.2 ± 0.077 | 3.38 ± 0.074 | 3.18 ± 0.061
34 | HKISFSGTKSEVLTYVN [YJL039C/NUP192] | 2.65 ± 0.093 | 2.49 ± 0.082 | 2.7 ± 0.087 | 2.39 ± 0.11
35 | ATAVAHVKAGKGLIKVN [RPS16A] | 1.66 ± 0.2 | 1.9 ± 0.12 | 1.21 ± 0.24 | –
36 | PFLNETKPGVYYVPYSK [RPC82] | 3.09 ± 0.12 | 2.97 ± 0.13 | 3.36 ± 0.091 | 3.03 ± 0.064
37 | AVKDQQKYTKEMIDSHI [SNF2] | 2.8 ± 0.062 | 2.68 ± 0.051 | 2.95 ± 0.043 | 2.38 ± 0.068
38 | EPEFHALSQSSLLKTKL [RRI1] | 2.15 ± 0.042 | 2.69 ± 0.039 | 2.24 ± 0.037 | 2.39 ± 0.042
39 | EEEEDTTTTANINEVKK [NUT1] | 3.24 ± 0.098 | 3.39 ± 0.11 | 3.33 ± 0.15 | 3.09 ± 0.084
40 | ELFKGYLADDIDADSLE [RPL5] | 3.02 ± 0.086 | 3.21 ± 0.076 | 3.17 ± 0.087 | 3.23 ± 0.064
41 | CCINAAFLALVDAGIAL [RRP46] | 2.37 ± 0.078 | 2.88 ± 0.07 | 2.62 ± 0.051 | 2.06 ± 0.061
42 | AFITQLESSITDAGVLA [YJL039C/NUP192] | 1.54 ± 0.06 | 1.6 ± 0.057 | 1.08 ± 0.096 | 1.16 ± 0.14
43 | SIVLDSEHFDVNDNPDI [DIS3] | 2.96 ± 0.053 | 3.11 ± 0.053 | 3.1 ± 0.046 | 2.74 ± 0.093
44 | KAKFTSLAVRSLQDRSS [YCS4] | 2.15 ± 0.042 | 2.3 ± 0.05 | 2.24 ± 0.036 | 2.13 ± 0.054
45 | SKGSFINIAQMSACVGQ [RPO21] | 1.44 ± 0.059 | 1.61 ± 0.053 | 1.67 ± 0.051 | 1.3 ± 0.082
46 | TRSAKKMVIAELLPHYP [YJR042W/NUP85] | 2.83 ± 0.089 | 2.81 ± 0.087 | 3 ± 0.074 | 2.89 ± 0.052
47 | KPSKPFNVDDVLKFTFT [MED8] | 3.1 ± 0.061 | 2.83 ± 0.051 | 2.74 ± 0.039 | 3.03 ± 0.034
48 | LVPQLGHVGSVQISNIP [PRP8] | 2.32 ± 0.1 | 2.3 ± 0.065 | 2.72 ± 0.089 | 1.91 ± 0.12
49 | CTQMTDEGLLNMVSLRG [GRR1] | 2.78 ± 0.1 | 2.66 ± 0.083 | 2.02 ± 0.054 | 2.22 ± 0.088
50 | VIEAKINHEDGFIETTE [RPN3] | 1.17 ± 0.16 | 1.37 ± 0.11 | 1.13 ± 0.083 | 1.3 ± 0.19
51 | QSDSAKVEIKKVNSRDD [PRP28] | 3.08 ± 0.079 | 3.44 ± 0.067 | 2.9 ± 0.12 | 2.73 ± 0.088
52 | MWSVARAGQRGYHSRTS [RPL3] | 2.86 ± 0.11 | 3.14 ± 0.091 | 3.11 ± 0.095 | 3.16 ± 0.069
